To fix the notation:
B1: TPR 5TU (parent)
chain: GGAUCUUCUCGAUCUAACAAAAAAGACAAAUCUGCCACAAAGCUUGAGAGCAUCUUCGGAUGCAGAGGCGGCAGCCUUCGGUGGCGCGAUAGCGCCAACGUUCUCAACUAUGACACGCAAAACGCGUGCUCCGUUGAAUGGAGUUUAUCAUG

Fewer inactive variants are shown than the library holds.

The variants in the data set derive from B1. The data set is described as follows: polymerase ribozyme fitness, log enrichment relative to wild type (log ratio); higher = more active; in vitro selection for triplet polymerase activity. The gist of the method: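 In triplicate, a single round of in vitro selection was run on each mutant library, PCR-built and transcribed, covering one subunit of a heterodimeric triplet polymerase ribozyme. Frozen incubation at −7 °C followed annealing with a biotinylated primer, partner subunit and triplets, and extended constructs were then gel-excised, streptavidin-captured and taken through RT-PCR. Fitness is the logarithm of genotype enrichment over wild-type enrichment, from inverse-variance-weighted replicate averages of Illumina-sequenced inputs and outputs. […] only genotypes with ≥10 input reads and ≥1 read per output were kept.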
C5A G59C C96A A98U: the “polymerase ribozyme fitness (log ratio)” value is -0.127.

On to C5G C32U A91G A115G, for which the “polymerase ribozyme fitness (log ratio)” value was no more than -4.2.

In the case of U4C A60U G74A C93U A106U A107U A150C, the “polymerase ribozyme fitness (log ratio)” value is no more than -4.2.

For C5G A19U A91G A113G, the “polymerase ribozyme fitness (log ratio)” value is no more than -4.2.

As for U4A A121G A137C C149U, the “polymerase ribozyme fitness (log ratio)” value was -4.16.

As to C5G A30U G59A C87G C108U U148A, the “polymerase ribozyme fitness (log ratio)” value is no more than -4.2.

Consider C5G C54A G65C A66G C85U, for which the “polymerase ribozyme fitness (log ratio)” value was no more than -4.2.

As to U4C U7C A17U A41C G68C U78A C99A C103G, the “polymerase ribozyme fitness (log ratio)” value is no more than -4.2.

For the variant C5A G11C C85U A119C C131G G141C, the “polymerase ribozyme fitness (log ratio)” value was 0.451.

Consider U4G A20G C35U G94C A97G C118A A137G A142U, for which the “polymerase ribozyme fitness (log ratio)” value was -4.11.

Take A3C U61A G84A G92A A120C: the “polymerase ribozyme fitness (log ratio)” value is no more than -4.2.

For A3C U6G A23U A39G U44A A89G C116G, the “polymerase ribozyme fitness (log ratio)” value was no more than -4.2.

As to C5G C99A, the “polymerase ribozyme fitness (log ratio)” value was -0.989.

In the case of C5A A16G G50U C51A A89U U134G A137G G140A A142C A147C, the “polymerase ribozyme fitness (log ratio)” value is no more than -4.2.

Take U4C U15C A22C A29U C43G U44A U45G C57U G59U C93U: the “polymerase ribozyme fitness (log ratio)” value was no more than -4.2.

Take U4G A73G A97G: the “polymerase ribozyme fitness (log ratio)” value worked out at 0.0284.

Take C5G C8A C27U A49C U56A G94A C95G U109G: the “polymerase ribozyme fitness (log ratio)” value is no more than -4.2.

With U4A G143U, the “polymerase ribozyme fitness (log ratio)” value was -3.47.

U4C A16U G83U U90C A113U U148C: the “polymerase ribozyme fitness (log ratio)” value was no more than -4.2.

Take U4A C8G U53G G71U A73G C79G C85G C87A G88U G92U A115G: the “polymerase ribozyme fitness (log ratio)” value is no more than -4.2.

Take A3U G59A C99U U144C A150G: the “polymerase ribozyme fitness (log ratio)” value was no more than -4.2.

U4A G92U: the “polymerase ribozyme fitness (log ratio)” value was -0.358.

As to C5A C57A A119U A137G U146G, the “polymerase ribozyme fitness (log ratio)” value was -2.37.

For the variant A3G A24U C69G C93G A119G C132G U139A, the “polymerase ribozyme fitness (log ratio)” value was no more than -4.2.

In the case of U4A U6G A22U U31G C35U U56A G68C C95U C125G U144C, the “polymerase ribozyme fitness (log ratio)” value is no more than -4.2.

On to U4C A49U G94A A106G C123U, for which the “polymerase ribozyme fitness (log ratio)” value is -1.94.

Consider C5A U13C C38U A121G U127C, for which the “polymerase ribozyme fitness (log ratio)” value is -4.07.

As to U4G C35G C95G U134A G136U, the “polymerase ribozyme fitness (log ratio)” value is -4.16.

Regarding C5G U7A C93U A106C, the “polymerase ribozyme fitness (log ratio)” value is -3.03.

As to U4C C5U A23C A47C C79A C85G U90C G117U G152U, the “polymerase ribozyme fitness (log ratio)” value is no more than -4.2.

Turning to U4C C85A C95G A115G, the “polymerase ribozyme fitness (log ratio)” value is -3.75.

With A3U C93U, the “polymerase ribozyme fitness (log ratio)” value was -1.81.

As to U4G A97G C103G, the “polymerase ribozyme fitness (log ratio)” value is -3.15.

As to U4C C51U C96A A121C U134A, the “polymerase ribozyme fitness (log ratio)” value is -3.3.

As for U4C A21G G42A G48C G50C A64U G84C U102G U127A, the “polymerase ribozyme fitness (log ratio)” value was no more than -4.2.

On to A3U G92A A113G G133U A142U U146G, for which the “polymerase ribozyme fitness (log ratio)” value was no more than -4.2.

A3U C5G A21U C85U A122G G140U U144G: the “polymerase ribozyme fitness (log ratio)” value is no more than -4.2.

With U4C A24U G81A C85U A89C, the “polymerase ribozyme fitness (log ratio)” value was -0.962.

For the variant A3C U15A A19U C75U C87U, the “polymerase ribozyme fitness (log ratio)” value was -1.71.

As to C5G U6G U7G C14G A28C A30C G50C C51G A89G C93G G94U C105U C116U G143U, the “polymerase ribozyme fitness (log ratio)” value is no more than -4.2.

For C5G A21C A29U U82A G94A G136C U151C, the “polymerase ribozyme fitness (log ratio)” value was no more than -4.2.

C5G C36A G58A A73G C85U: the “polymerase ribozyme fitness (log ratio)” value was no more than -4.2.

In the case of A3G A12C A37C G48A A49C U78G G86A C87G C99U A142C U146G, the “polymerase ribozyme fitness (log ratio)” value is no more than -4.2.

In the case of A3U C14G A28C A91U A97C A122C, the “polymerase ribozyme fitness (log ratio)” value is no more than -4.2.

With A3U C43A U45A A47U G59C C125U U130C A137G, the “polymerase ribozyme fitness (log ratio)” value was no more than -4.2.

For C5G G141C, the “polymerase ribozyme fitness (log ratio)” value was -0.606.

Regarding A3U A19U, the “polymerase ribozyme fitness (log ratio)” value is -0.0693.

With A3U A12G C43U C54U G71U C79A A120C, the “polymerase ribozyme fitness (log ratio)” value is no more than -4.2.

In the case of C5G A16G A21U C93U U101G A110C C116U G124C, the “polymerase ribozyme fitness (log ratio)” value was no more than -4.2.

With A3U A21C G62C C63U A73U C79U G84A C93G A106U U145G, the “polymerase ribozyme fitness (log ratio)” value is no more than -4.2.

In the case of A3U A16U A17G A23C C93U A106G A122G U139G, the “polymerase ribozyme fitness (log ratio)” value is no more than -4.2.

Consider C5A C57U G59C C96G U101G, for which the “polymerase ribozyme fitness (log ratio)” value is -0.41.

For U4G A41C A137C, the “polymerase ribozyme fitness (log ratio)” value was no more than -4.2.

A3U U4C A52C G67A G83U A122U A137U U148A: the “polymerase ribozyme fitness (log ratio)” value was no more than -4.2.

On to U4G A12G A22U U53A C72G G100A U111G C125U, for which the “polymerase ribozyme fitness (log ratio)” value is no more than -4.2.

As to C5A A89G C95G C132U, the “polymerase ribozyme fitness (log ratio)” value is -3.03.

Turning to C5A A21C G74A U82G G92U, the “polymerase ribozyme fitness (log ratio)” value was no more than -4.2.

Take C5A A28G G34C G74A U82A G86A C93A A97C: the “polymerase ribozyme fitness (log ratio)” value was no more than -4.2.

With U4A A24U C57A C93U G94U G141U, the “polymerase ribozyme fitness (log ratio)” value was -2.67.

Turning to U4A A22U A40G U145A, the “polymerase ribozyme fitness (log ratio)” value was -3.05.

Consider A3U A26U A29U A49C C87U C114U G141A, for which the “polymerase ribozyme fitness (log ratio)” value was no more than -4.2.

Turning to U4G C14G C76G, the “polymerase ribozyme fitness (log ratio)” value is no more than -4.2.

As to A3U U55A G84A, the “polymerase ribozyme fitness (log ratio)” value was -0.911.

On to A3G C43U G65U G68A G71A G86U G112U G152A, for which the “polymerase ribozyme fitness (log ratio)” value was no more than -4.2.

Take C5A A12C A19U U102G C116A A119G U135A G136C: the “polymerase ribozyme fitness (log ratio)” value was no more than -4.2.

For the variant C5A G94U C95A C123A U135C, the “polymerase ribozyme fitness (log ratio)” value was -3.89.

Consider C5A C10U A41C A49C U139G U151G, for which the “polymerase ribozyme fitness (log ratio)” value was no more than -4.2.

With A3C U31G A52C U56A U61G A91C C108G A113U, the “polymerase ribozyme fitness (log ratio)” value is no more than -4.2.

Take A3C U6G A49C G65A G71A G88C C93A U135C: the “polymerase ribozyme fitness (log ratio)” value is no more than -4.2.

Regarding C5A C35A U55A A91G G100U G126A A147G, the “polymerase ribozyme fitness (log ratio)” value is no more than -4.2.

For A3G A97C A107G, the “polymerase ribozyme fitness (log ratio)” value is no more than -4.2.

Take C5A A66G C96U A115G U139G G140A: the “polymerase ribozyme fitness (log ratio)” value is no more than -4.2.

U4C U9A A41C G48C C51A G68A G83C: the “polymerase ribozyme fitness (log ratio)” value is no more than -4.2.

Take C5G C54G U56G C95U C125U C129A G133U: the “polymerase ribozyme fitness (log ratio)” value is no more than -4.2.

A3G C8G A23C C54A G80C G81A A89U C93G: the “polymerase ribozyme fitness (log ratio)” value is no more than -4.2.

On to U4C C5A A24U A41G G46C C85U C96G, for which the “polymerase ribozyme fitness (log ratio)” value was -3.3.

Take C5A C36U C79U A121G: the “polymerase ribozyme fitness (log ratio)” value is no more than -4.2.

On to C5A C85U A97U G143A, for which the “polymerase ribozyme fitness (log ratio)” value is -1.87.

Take C5G A39U C57A G59U G83U C103G C116U: the “polymerase ribozyme fitness (log ratio)” value is no more than -4.2.

Regarding A3U A26U C57U C108U C125A A147C U148G, the “polymerase ribozyme fitness (log ratio)” value is no more than -4.2.

With A3U A49G G50A C96U G141A, the “polymerase ribozyme fitness (log ratio)” value is -3.63.

With A3G U82G C95U U102G, the “polymerase ribozyme fitness (log ratio)” value was -3.62.

Take C5G A20C: the “polymerase ribozyme fitness (log ratio)” value was -0.472.

As to U4C A23C A37G U53A, the “polymerase ribozyme fitness (log ratio)” value was no more than -4.2.

The record behind these values is the RNAGym collection of RNA variant scans (doi:10.1073/pnas.2313332121).
